Test results published in the supplement of paper PMC10567573.

B1: SPATS1 (parent)
chain: YPEQSKGFHKAGSMLPPVNFSIVP

Variants of: B1
Assay: protein stability index of a GFP-peptide fusion (GPS, HEK-293T) (PSI 1-6); higher = more stable
Settings: c terminus: a fixed tail appended
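Also: lentivirally expressed fusions sorted by FACS into six bins by GFP to DsRed ratio, PSI derived from sequencing read proportions per bin multiplied by bin number.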

Row | Variant | protein stability index
1 | YPEQSKGFHKAGSMLPPVNFKIVP | 2.15
2 | YPEQSKGFHKAGSMLPPVNFRIVP | 1.8
3 | YPEQSKGFHKAGSMLPPVNFWIVP | 2.43
4 | YPEQSKGFHKAGSMLPPVNFVIVP | 2.24
5 | YPEQSKGFHKAGSMLPPVNFHIVP | 1.49
6 | YPEQSKGFHKAGSMLPPVNFNIVP | 2.4
7 | YPEQSKGFHKAGSMLPPVNFTIVP | 2.52
8 | YPEQSKGFHKAGSMLPPVNFYIVP | 2.6
9 | YPEQSKGFHKAGSMLPPVNFFIVP | 1.6
10 | YPEQSKGFHKAGSMLPPVNFPIVP | 1.96
11 | YPEQSKGFHKAGSMLPPVNFQIVP | 1.88
12 | YPEQSKGFHKAGSMLPPVNFGIVP | 1.81
13 | YPEQSKGFHKAGSMLPPVNFDIVP | 1.87
14 | YPEQSKGFHKAGSMLPPVNFMIVP | 2.06
15 | YPEQSKGFHKAGSMLPPVNFCIVP | 1.79
16 | YPEQSKGFHKAGSMLPPVNFLIVP | 2.08
17 | YPEQSKGFHKAGSMLPPVNFIIVP | 2.13
18 | YPEQSKGFHKAGSMLPPVNFEIVP | 1.94
19 | YPEQSKGFHKAGSMLPPVNFAIVP | 1.8
20 | YPEQSKGFHKAGSMLPPYNFSIVP | 1.91
21 | YPEQSKGFHKAGSMLPPDNFSIVP | 2.26
22 | YPEQSKGFHKAGSMLPPWNFSIVP | 1.76
23 | YPEQSKGFHKAGSMLPPTNFSIVP | 2
24 | YPEQSKGFHKAGSMLPPENFSIVP | 1.81

Row | Variant | protein stability index
25 | YPEQSKGFHKAGSMLPPPNFSIVP | 2.19
26 | YPEQSKGFHKAGSMLPPHNFSIVP | 1.95
27 | YPEQSKGFHKAGSMLPPMNFSIVP | 2.02
28 | YPEQSKGFHKAGSMLPPNNFSIVP | 2.4
29 | YPEQSKGFHKAGSMLPPINFSIVP | 1.84
30 | YPEQSKGFHKAGSMLPPQNFSIVP | 2.2
31 | YPEQSKGFHKAGSMLPPKNFSIVP | 2.06
32 | YPEQSKGFHKAGSMLPPANFSIVP | 2.56
33 | YPEQSKGFHKAGSMLPPLNFSIVP | 1.28
34 | YPEQSKGFHKAGSMLPPFNFSIVP | 1.73
35 | YPEQSKGFHKAGSMLPPGNFSIVP | 2.48
36 | YPEQSKGFHKAGSMLPPRNFSIVP | 1.62
37 | YPEQSKGFHKAGSMLPPSNFSIVP | 1.96
38 | YPEQSKGFHKAGSMLPPCNFSIVP | 2.2
39 | YPEQSKGFHKAGSMLPPVNFSIGP | 1.98
40 | YPEQSKGFHKAGSMLPPVNFSIMP | 1.93
41 | YPEQSKGFHKAGSMLPPVNFSIFP | 1.59
42 | YPEQSKGFHKAGSMLPPVNFSIIP | 2.47
43 | YPEQSKGFHKAGSMLPPVNFSIEP | 2.42
44 | YPEQSKGFHKAGSMLPPVNFSICP | 1.8
45 | YPEQSKGFHKAGSMLPPVNFSIKP | 2.1
46 | YPEQSKGFHKAGSMLPPVNFSILP | 1.94
47 | YPEQSKGFHKAGSMLPPVNFSIHP | 1.43
48 | YPEQSKGFHKAGSMLPPVNFSIAP | 2.57

Row | Variant | protein stability index
49 | YPEQSKGFHKAGSMLPPVNFSIDP | 1.88
50 | YPEQSKGFHKAGSMVPPVNFSIVP | 1.85
51 | YPEQSKGFHKAGSMQPPVNFSIVP | 2.47
52 | YPEQSKGFHKAGSMDPPVNFSIVP | 2.29
53 | YPEQSKGFHKAGSMIPPVNFSIVP | 1.84
54 | YPEQSKGFHKAGSMFPPVNFSIVP | 1.84
55 | YPEQSKGFHKAGSMKPPVNFSIVP | 1.72
56 | YPEQSKGFHKAGSMTPPVNFSIVP | 2.16
57 | YPEQSKGFHKAGSMRPPVNFSIVP | 1.9
58 | YPEQSKGFHKAGSMGPPVNFSIVP | 1.58
59 | YPEQSKGFHKAGSMHPPVNFSIVP | 2.27
60 | YPEQSKGFHKAGSMWPPVNFSIVP | 1.47
61 | YPEQSKGFHKAGSMAPPVNFSIVP | 1.63
62 | YPEQSKGFHKAGSMSPPVNFSIVP | 2.04
63 | YPEQSKGFHKAGSMNPPVNFSIVP | 2.02
64 | YPEQSKGFHKAGSMCPPVNFSIVP | 2.05
65 | YPEQSKGFHKAGSMEPPVNFSIVP | 2.37
66 | YPEQSKGFHKAGSMYPPVNFSIVP | 2.42
67 | YPEQSKGFHKAGSMMPPVNFSIVP | 1.8
68 | YPEQSKGFHKAGSMPPPVNFSIVP | 2.42
69 | YPEQSKGFHKAGSMLPPVNFSAVP | 2.22
70 | YPEQSKGFHKAGSMLPPVNFSFVP | 1.97
71 | YPEQSKGFHKAGSMLPPVNFSLVP | 2.34
72 | YPEQSKGFHKAGSMLPPVNFSMVP | 2.04

Row | Variant | protein stability index
73 | YPEQSKGFHKAGSMLPPVNFSPVP | 2.01
74 | YPEQSKGFHKAGSMLPPVNFSHVP | 1.75
75 | YPEQSKGFHKAGSMLPPVNFSVVP | 1.82
76 | YPEQSKGFHKAGSMLPPVNFSWVP | 1.24
77 | YPEQSKGFHKAGSMLPPVNFSRVP | 2.52
78 | YPEQSKGFHKAGSMLPPVNFSSVP | 2.48
79 | YPEQSKGFHKAGSMLPPVNFSTVP | 2.53
80 | YPEQSKGFHKAGSMLPPVNFSEVP | 2.33
81 | YPEQSKGFHKAGSMLPPVNFSQVP | 2.26
82 | YPEQSKGFHKAGSMLPPVNFSYVP | 1.75
83 | YPEQSKGFHKAGSMLPPVNFSKVP | 1.65
84 | YPEQSKGFHKAGSMLPPVNFSGVP | 2.52
85 | YPEQSKGFHKAGSMLPPVNFSDVP | 2.47
86 | YPEQSKGFHKAGSMLPPVNFSNVP | 2.31
87 | YPEQSKGFHKAGSMLPPVNFSCVP | 1.76
88 | YPEQSKGFHKAGYMLPPVNFSIVP | 1.78
89 | YPEQSKGFHKAGVMLPPVNFSIVP | 1.67
90 | YPEQSKGFHKAGQMLPPVNFSIVP | 1.97
91 | YPEQSKGFHKAGRMLPPVNFSIVP | 2.15
92 | YPEQSKGFHKAGWMLPPVNFSIVP | 2.1
93 | YPEQSKGFHKAGTMLPPVNFSIVP | 1.7
94 | YPEQSKGFHKAGSMLPPVGFSIVP | 1.74
